For this data set, the system named is Escherichia coli TOP10. In words: shrunken log2 fold change of peptide-encoding DNA abundance (4.5 h post-induction vs induction); higher = less antimicrobial activity (less host growth inhibition). To be noted: time post-induction: 4.5 h; library: site-saturation at positions 5, 18, 19, 20.
As for RRIRKRPPRLPRPRPRPLTKPRP, the “shrunken log2 fold change” value worked out at 0.457. As to RRIRGRPPRLPRPRPRPYWFPRP, the “shrunken log2 fold change” value was 0.105. On to RRIRRRPPRLPRPRPRPQEAPRP, for which the “shrunken log2 fold change” value worked out at 0.0364. Next, RRIRFRPPRLPRPRPRPEDLPRP: 0.143; RRIRARPPRLPRPRPRPLYEPRP: 0.000796. Next, RRIRQRPPRLPRPRPRPLIDPRP: -0.206; RRIRQRPPRLPRPRPRPHKHPRP: -0.502; RRIRQRPPRLPRPRPRPSCMPRP: -0.508. Under RRIRARPPRLPRPRPRPGAHPRP stands 0.669; under RRIRGRPPRLPRPRPRPKPNPRP, 1.05; under RRIRARPPRLPRPRPRPQWKPRP, 0.179. For the sequence RRIRWRPPRLPRPRPRPGYWPRP, the “shrunken log2 fold change” value is -0.00394. Under RRIRVRPPRLPRPRPRPFEHPRP stands -0.00133; under RRIRERPPRLPRPRPRPNFPPRP, -0.169. Next, RRIRWRPPRLPRPRPRPCNAPRP: -0.0905.

RRIRHRPPRLPRPRPRPWMTPRP: the “shrunken log2 fold change” value is -0.225.

Turning to RRIRQRPPRLPRPRPRPCISPRP, the “shrunken log2 fold change” value is -0.177. Turning to RRIRIRPPRLPRPRPRPIVHPRP, the “shrunken log2 fold change” value was -0.642. Under RRIRYRPPRLPRPRPRPRETPRP stands -0.0404; under RRIRFRPPRLPRPRPRPWYCPRP, -0.706; under RRIRNRPPRLPRPRPRPMRLPRP, 0.286. In the case of RRIRIRPPRLPRPRPRPGTCPRP, the “shrunken log2 fold change” value is -0.188. Next, RRIRLRPPRLPRPRPRPWVQPRP: -0.118.

RRIRSRPPRLPRPRPRPDVAPRP: the “shrunken log2 fold change” value came out at 0.407. Next, RRIRPRPPRLPRPRPRPVMQPRP: 0.136; RRIRLRPPRLPRPRPRPTGHPRP: 0.0863. Turning to RRIRPRPPRLPRPRPRPIPHPRP, the “shrunken log2 fold change” value was -0.163. Next, RRIRSRPPRLPRPRPRPVLHPRP: -0.201. Under RRIRSRPPRLPRPRPRPIQDPRP stands 0.00805; under RRIRHRPPRLPRPRPRPILTPRP, -0.201. As for RRIRFRPPRLPRPRPRPWNDPRP, the “shrunken log2 fold change” value is -0.243. On to RRIRLRPPRLPRPRPRPFRMPRP, for which the “shrunken log2 fold change” value is -0.0132. Next, RRIRQRPPRLPRPRPRPGDCPRP: -0.0893; RRIRARPPRLPRPRPRPTRCPRP: 1.1; RRIRQRPPRLPRPRPRPGSWPRP: 0.298. Under RRIRRRPPRLPRPRPRPRRVPRP stands 0.347; under RRIRWRPPRLPRPRPRPWLIPRP, 0.112; under RRIRHRPPRLPRPRPRPRSIPRP, -0.374. In the case of RRIRLRPPRLPRPRPRPMMSPRP, the “shrunken log2 fold change” value was -0.00436.

For RRIRSRPPRLPRPRPRPMTRPRP, the “shrunken log2 fold change” value is 0.381. For RRIRYRPPRLPRPRPRPYGIPRP, the “shrunken log2 fold change” value was -0.064. Next, RRIRGRPPRLPRPRPRPRHIPRP: 0.192; RRIRWRPPRLPRPRPRPEHPPRP: 0.16; RRIRWRPPRLPRPRPRPDKLPRP: 0.161. Next, RRIRFRPPRLPRPRPRPWQEPRP: -0.2; RRIRPRPPRLPRPRPRPCGGPRP: 0.224; RRIRMRPPRLPRPRPRPVDCPRP: 0.029. Under RRIRCRPPRLPRPRPRPDWQPRP stands -0.0213; under RRIRCRPPRLPRPRPRPCVGPRP, -0.0691; under RRIRARPPRLPRPRPRPKFMPRP, 0.0584. In the case of RRIRERPPRLPRPRPRPKINPRP, the “shrunken log2 fold change” value is -0.488. As for RRIRHRPPRLPRPRPRPEKLPRP, the “shrunken log2 fold change” value was determined as 0.0208.

For the sequence RRIRCRPPRLPRPRPRPFDKPRP, the “shrunken log2 fold change” value was -0.493. For the sequence RRIRWRPPRLPRPRPRPMIEPRP, the “shrunken log2 fold change” value was 0.0215.

Take RRIRTRPPRLPRPRPRPFTYPRP: the “shrunken log2 fold change” value is -0.00136. Next, RRIRFRPPRLPRPRPRPYVYPRP: -0.196. As to RRIRIRPPRLPRPRPRPDTMPRP, the “shrunken log2 fold change” value was -0.272. On to RRIRFRPPRLPRPRPRPYSSPRP, for which the “shrunken log2 fold change” value was -0.571. Under RRIRWRPPRLPRPRPRPARYPRP stands -0.0422; under RRIRMRPPRLPRPRPRPLWTPRP, 0.261; under RRIRERPPRLPRPRPRPIVIPRP, -0.233. Under RRIRYRPPRLPRPRPRPSPQPRP stands -0.195.

For the sequence RRIRQRPPRLPRPRPRPKYGPRP, the “shrunken log2 fold change” value was -0.3. As for RRIRARPPRLPRPRPRPHNSPRP, the “shrunken log2 fold change” value is 1.18.

RRIRARPPRLPRPRPRPSYLPRP: the “shrunken log2 fold change” value is -0.716. Next, RRIRDRPPRLPRPRPRPLQEPRP: 0.223; RRIRQRPPRLPRPRPRPRYKPRP: -0.278. For RRIRKRPPRLPRPRPRPTKTPRP, the “shrunken log2 fold change” value stood at 0.14. Under RRIRIRPPRLPRPRPRPVVKPRP stands -0.151.

For the sequence RRIRDRPPRLPRPRPRPFCNPRP, the “shrunken log2 fold change” value was -0.0411. Next, RRIRMRPPRLPRPRPRPASHPRP: 0.343.

For RRIRSRPPRLPRPRPRPEFTPRP, the “shrunken log2 fold change” value turned out to be 0.171. Regarding RRIRLRPPRLPRPRPRPRLTPRP, the “shrunken log2 fold change” value is 0.143. On to RRIRHRPPRLPRPRPRPCSCPRP, for which the “shrunken log2 fold change” value is -0.0391. Regarding RRIRTRPPRLPRPRPRPHFVPRP, the “shrunken log2 fold change” value was -0.239. For the sequence RRIRGRPPRLPRPRPRPLMFPRP, the “shrunken log2 fold change” value is 0.603. Next, RRIRCRPPRLPRPRPRPNSCPRP: -0.394. With RRIRCRPPRLPRPRPRPDDEPRP, the “shrunken log2 fold change” value turned out to be 0.33.

In the case of RRIRSRPPRLPRPRPRPNNQPRP, the “shrunken log2 fold change” value was -0.104. For RRIRLRPPRLPRPRPRPPPYPRP, the “shrunken log2 fold change” value came out at 0.388. Under RRIRSRPPRLPRPRPRPNEAPRP stands 0.162; under RRIRERPPRLPRPRPRPISKPRP, -0.575; under RRIRARPPRLPRPRPRPDCCPRP, 0.172. Next, RRIRARPPRLPRPRPRPWNIPRP: -0.675; RRIRARPPRLPRPRPRPKHWPRP: 0.593; RRIRVRPPRLPRPRPRPKISPRP: -0.234. Next, RRIRCRPPRLPRPRPRPKRWPRP: 0.627; RRIRQRPPRLPRPRPRPCQWPRP: -0.205. RRIRLRPPRLPRPRPRPRQFPRP: the “shrunken log2 fold change” value was determined as 0.196. Next, RRIRGRPPRLPRPRPRPVTCPRP: 0.146; RRIRNRPPRLPRPRPRPATEPRP: 0.00868; RRIRPRPPRLPRPRPRPISPPRP: -0.115. For the sequence RRIRRRPPRLPRPRPRPRWFPRP, the “shrunken log2 fold change” value was determined as 0.524. RRIRKRPPRLPRPRPRPMPKPRP: the “shrunken log2 fold change” value was determined as 0.421.

Turning to RRIRFRPPRLPRPRPRPELKPRP, the “shrunken log2 fold change” value was -0.0455. Take RRIRWRPPRLPRPRPRPPMVPRP: the “shrunken log2 fold change” value was 0.104.

On to RRIRKRPPRLPRPRPRPEQYPRP, for which the “shrunken log2 fold change” value was 0.104.

Take RRIRARPPRLPRPRPRPFHYPRP: the “shrunken log2 fold change” value is -0.371. On to RRIRLRPPRLPRPRPRPMVNPRP, for which the “shrunken log2 fold change” value was -0.0358. Take RRIRGRPPRLPRPRPRPCGDPRP: the “shrunken log2 fold change” value is 0.581. Next, RRIRFRPPRLPRPRPRPMLFPRP: -0.0947; RRIRTRPPRLPRPRPRPQAQPRP: 0.017; RRIRGRPPRLPRPRPRPCFNPRP: 0.436. Next, RRIRSRPPRLPRPRPRPANDPRP: 0.0254; RRIRVRPPRLPRPRPRPIIKPRP: -0.351. Under RRIRQRPPRLPRPRPRPFVDPRP stands -0.00879; under RRIRSRPPRLPRPRPRPQTFPRP, -0.136. In the case of RRIRCRPPRLPRPRPRPARKPRP, the “shrunken log2 fold change” value was 0.21.

With RRIRKRPPRLPRPRPRPASDPRP, the “shrunken log2 fold change” value worked out at 0.981. Next, RRIRARPPRLPRPRPRPFLSPRP: -0.107.

For the sequence RRIRRRPPRLPRPRPRPFTCPRP, the “shrunken log2 fold change” value is -0.0792. Regarding RRIRMRPPRLPRPRPRPGNQPRP, the “shrunken log2 fold change” value is -0.0232. Under RRIRRRPPRLPRPRPRPFLSPRP stands 0.128; under RRIRFRPPRLPRPRPRPCLDPRP, -0.35. Turning to RRIRYRPPRLPRPRPRPWQNPRP, the “shrunken log2 fold change” value was -0.103.

Consider RRIRYRPPRLPRPRPRPYRAPRP, for which the “shrunken log2 fold change” value is -0.0919. With RRIRKRPPRLPRPRPRPNVQPRP, the “shrunken log2 fold change” value is 0.179. As for RRIRSRPPRLPRPRPRPLSTPRP, the “shrunken log2 fold change” value is -0.369. Next, RRIRGRPPRLPRPRPRPRTTPRP: 1.06; RRIRKRPPRLPRPRPRPLRPPRP: 1.01. Next, RRIRNRPPRLPRPRPRPQYWPRP: -0.37. Next, RRIRSRPPRLPRPRPRPRQHPRP: 0.169. Consider RRIRLRPPRLPRPRPRPTFAPRP, for which the “shrunken log2 fold change” value amounted to 0.394.

For RRIRPRPPRLPRPRPRPPENPRP, the “shrunken log2 fold change” value was found to be 0.365. Under RRIRARPPRLPRPRPRPFMCPRP stands 0.618.

Source of the values: the supplement of paper PMC9112550, “Optimization of the antimicrobial peptide Bac7 by deep mutational scanning” (BMC Biology, 2022).
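Further: peptides expressed intracellularly from a pBAD plasmid library in pooled LB shake-flask culture, induced with 0.3% L-arabinose, DNA abundance read by NGS, three biological replicates, DESeq2 with apeglm shrinkage.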
